Measurements as given in article PMC11648839.

What was measured:
[1] = molecular target: PmoA-eGFP (subunit A of the particulate methane monooxygenase enzyme complex, eGFP at the C-terminus) (UniProt Q607G3); assay: FRET or BRET; FRET-FLIM in living tobacco leaf epidermal cells; eGFP fusion as donor, mRFP fusion as acceptor; two-photon excitation at 920 nm, TCSPC; lifetime of the donor with acceptor compared with donor alone; region of interest on the nucleus
[2] = molecular target: eGFP-PmoA (subunit A of the particulate methane monooxygenase enzyme complex, eGFP at the N-terminus) (UniProt Q607G3); assay: as above

| average eGFP (donor) fluorescence lifetime with acceptor [1] [ns] | Δ (reduction of donor lifetime against donor alone) [1] [ns] | average eGFP (donor) fluorescence lifetime with acceptor [2] [ns] | Δ (reduction of donor lifetime against donor alone) [2] [ns] | Substance |
| --- | --- | --- | --- | --- |
| 2.2 | 0.2 | – | – | PmoC-mRFP (subunit C of the particulate methane monooxygenase enzyme complex, mRFP at the C-terminus) (natural protein) |
| 2.2 | 0.2 | 2.2 | 0.2 | mRFP-PmoC (subunit C of the particulate methane monooxygenase enzyme complex, mRFP at the N-terminus) (natural protein) |
